Experimental findings from patent US20190135868 are described below.

In general, EC50 refers to the concentration giving half of the maximal effect. A word on the Kd: it is the concentration at which binding is half-saturated.

For one data set, the system named is T1, RTD913 SMCC (synthetic).
T1 sequence 1: KRAHHNALERXRRDXIKDS
T1 sequence 2: KRRTHNXLERXRRNELKRS
Description: EMSA. Particulars: stable complex formation, somewhat unstable binding; text p911 gives ~50-100 nM. A general note: In EMSA bound probe runs differently from free probe, usually more slowly.

Data set [1] relates to T2, RTD84 (stapled sDBD) (synthetic).
T2 sequence 1: KRXHHNXLERKRRDHIKDS
T2 sequence 2: KRRTHNXLERXRRNELKRS
Description: EMSA. The following applies: text p911 gives EC50 ~50-100 nM.

For “CACGTG (double strand) [E-box probe (E1)]”, the EC50 in the data set on RTD913 SMCC (synthetic) stood at 20 nM. This sequence yielded a Kd in data set [1] of 50 nM.
